Experimental findings from patent US20020199211A1 (CHILDREN S MEDICAL CENTER, published 2002) are described below.

Test [1] deals with Nck-GBT9 (full-length Nck in the bait vector pGBT9) (UniProt P04386 1-147; P16333 1-377). The test can be described thus: yeast two-hybrid (HF7c); - means no growth on selective medium. As for the experimental part:
(§1) Yeast transformation and colony analysis were performed according to the manufacturer's instructions (Matchmaker Two-Hybrid System Protocol, CLONTECH).

Test [2] concerns the target T1, full length WASP cloned into the bait vector pGBT9 (Gal4 binding domain fusion) (UniProt P04386 1-147; P42768 1-502).
T1 construct: also called WAS protein
The description is as above. The procedure: as §1

B1: pGAD424 without insert (Gal4 activation domain alone) (other, UniProt P04386 768-881, looked up)
chain: ANFNQSGNIADSSLSFTFTNSSNGPNLITTQTNSQALSQPIASSNVHDNFMNNEITASKIDDGNNSKPLSPGWTDQTAYNAFGITTGMFNTTTMDDVYNYLFDDEDTPPNPKKE
notes: also called None (pGAD424)
In the case of B1, the binding result in test [1] and in test [2] was “no binding” throughout.

B2: human TRAF1 (amino acids 62-416) in pGAD424 (other, UniProt Q13077 62-416, looked up, not shown: large carriers)
chain: LQSISPGSRLRTQEKAHPEVAEAGIGCPFAGVGCSFKGSPQSVQEHEVTSQTSHLNLLLGFMKQWKARLGCGLESGPMALEQNLSDLQLQAAVEVAGDLEVDCYRAPCSESQEELALQHFMKEKLLAELEGKLRVFENIVAVLNKEVEASHLALATSIHQSQLDRERILSLEQRVVELQQTLAQKDQALGKLEQSLRLMEEASFDGTFLWKITNVTRRCHESACGRTVSLFSPAFYTAKYGYKLCLRLYLNGDGTGKRTHLSLFIVIMRGEYDALLPWPFRNKVTFMLLDQNNREHAIDAFRPDLSSASFQRPQSETNVASGCPLFFPLSKLQSPKHAYVKDDTMFLKCIVETST
notes: Control prey; also called tumor necrosis factor receptor-associated factor 1
Consider B2, for which the binding result in test [1] and in test [2] was “no binding” throughout.
